Assay results: the supplement of paper PMC10567573

B1: KRT13 (parent)
chain: KTIEELRDKILTATIENNRVILEI
B2: KLHL14 (parent)
chain: YVIGGRNETGYLSSVECYNLETNE

Variants of: B1
Assay: protein stability index of a GFP-peptide fusion (GPS, HEK-293T) (PSI 1-6); higher = more stable
Details: c terminus: a fixed tail appended
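Also: lentivirally expressed fusions sorted by FACS into six bins by GFP to DsRed ratio, PSI derived from sequencing read proportions per bin multiplied by bin number.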

Protein stability index: each site, then its substitutions
L6: G 1.47; H 3.32; D 1.92; P 1.48; C 3.04; Q 1.89; T 2.46; A 1.94; K 2.32; N 1.31; I 2.5; Y 3.18; E 1.85; M 1.98; R 2.56; V 2.23
E5: M 4.08; W 2.82; P 3.07; G 2.46; R 2.13; I 3.5; V 1.83; Q 2.38; K 2.95; Y 4.43; A 2.6
E4: M 1.7; A 1.85; R 3.26; L 4.03; S 3.44; T 3.39; I 2.6; H 3.82; F 3.99; D 3.39; V 2.4
I3: N 2.43; G 3.54; F 3.37; E 2.13; P 1.39; R 1.36; T 2.91; S 2.41; C 3.18; A 1.24; D 1.67; Q 2.43; K 2.09
K1: Y 2.36; T 2.34; M 1.88; S 3.17; N 2.48; I 2.74; D 2.31; F 3.36; E 2.38; R 1.6; H 2.09; P 1.24; A 3.63; C 1.99; W 3.79
T2: D 2.88; H 1.86; W 3.4; Q 3.17; N 2.12; C 2.92; M 2.73; A 2.31; E 1.63; K 2.6; L 2.35
R7: N 2.38; Q 2.85; A 2.27; K 1.51; C 3.68; I 2.6; F 1.85; M 2.07; D 2.25; P 1.15; L 3.71

Variants of: B2
Assay: as above
Details: c terminus: a fixed tail appended

Protein stability index of substitutions, site by site:
S14: C 2.4; L 1.75; W 2.88; H 1.8; I 2.56; A 1.7; K 1.35; V 2.08; E 2.91; Y 2.01; M 2.3; D 2.38; P 1.61; N 2.12; F 1.47; G 2.31; R 1.58; Q 2.5; T 1.99
N19: E 2.22; Q 2; Y 1.76; L 2.08; C 1.57; S 1.83; V 1.66; D 2.41; G 1.7; P 2.1; W 2.77; R 1.49; A 2.15; I 2.07; H 2.04; M 1.8; T 2.17; K 2.13; F 3.39
L20: R 2.39; V 1.78; G 1.82; T 2.36; W 1.55; N 2.79; S 2.18; H 2.34; M 1.96; D 2.79; F 1.98; E 3.04; K 2.09; Y 2.02; C 2.09; Q 2.48; P 1.83; I 2.21; A 2.12
E21: M 1.74; A 2.66; F 2.62; K 2.26; G 2.19; N 1.55; V 1.54; T 1.68; I 2.05; W 3.54; L 1.67; D 1.8; C 2.61; P 1.93; Y 2.17; R 1.91; H 1.63; Q 2.39; S 2.29
E16: I 1.83; L 2.09; S 2.18; Y 1.84; K 1.28; Q 1.96; A 1.27; D 2.41; H 1.62; C 2.58; T 1.96; V 3.5; F 3.4; N 2.33; R 2.16; W 2.93; G 1.54; M 1.45; P 2.45
Y18: T 2.72; C 1.71; G 2.57; M 2.4; E 2.48; N 2.61; H 2.32; I 2.5; K 1.96; F 2.1; Q 2.34; W 2.21; P 2.45; D 2.77; L 2.11; R 2.6; A 2.76; V 2.05; S 2.14
S13: L 2.25; I 1.84; F 2.13; Q 1.64; C 2.24; P 2.6; G 1.81; T 1.79; K 1.68; V 1.89; Y 1.79; N 1.78; A 1.65; H 1.58; M 1.91; E 2.61; R 2.23; D 2.76
E24: S 2.07; D 2.14; N 1.99; R 2.17; I 2.19; M 1.71; H 1.8; F 1.95; V 1.96; G 1.69; Y 2.08; C 1.96; T 1.63; W 1.67; A 1.64; Q 1.49; P 1.72; K 1.75; L 2.27
T22: E 2.84; L 2.1; H 2.54; N 1.63; D 2.07; G 1.86; P 1.76; Q 1.94; V 2.6; Y 2.06; A 2; F 1.54; M 1.49; K 2.2; R 2.62; W 1.53; S 1.4; C 1.79; I 1.84
N23: V 2.17; E 2.67; H 1.86; F 1.88; P 1.75; T 2.15; M 1.89; S 1.86; K 1.96; I 1.56; Y 1.75; W 1.74; L 1.66; D 2.75; Q 3.14; A 2.06; C 2.45; G 1.74; R 1.92
L12: F 1.8; S 2.59; I 2.25; M 2.33; Q 2.42; K 2.16; D 3.42; A 2.62; N 2.78; H 1.92; G 2.99; W 2.47; T 2.57; E 3.23; P 2.64; Y 1.8; V 2.21; C 2.32; R 3.28
V15: W 2.21; I 1.83; S 2.5; D 2.95; Y 1.5; A 1.76; E 2.69; P 2.46; T 1.74; G 2.05; L 1.9; H 2.24; F 1.52; R 2.01; M 1.84; N 2.46; Q 2.49; C 1.66; K 2.12
C17: M 1.78; N 2.44; E 2.22; H 2.08; W 2.17; A 2.06; V 1.48; F 1.66; Y 1.78; S 2.11; G 2.8; R 2.39; T 2.56; P 2.23; Q 2.43; D 2.82; L 2.56; K 2.28; I 2.5
